The record followed here is patent US20150210761A1 (SAMSUNG ELECTRONICS, published 2015).

The target in test [1] is T1, recombinant hAng-2 (C-His, R&D Systems) (human, UniProt O15123 19-496).
T1 construct: Bought protein; Captured on an anti-His antibody chip for SPR; also called human Ang2; not shown: C-terminal His tag
T1 sequence: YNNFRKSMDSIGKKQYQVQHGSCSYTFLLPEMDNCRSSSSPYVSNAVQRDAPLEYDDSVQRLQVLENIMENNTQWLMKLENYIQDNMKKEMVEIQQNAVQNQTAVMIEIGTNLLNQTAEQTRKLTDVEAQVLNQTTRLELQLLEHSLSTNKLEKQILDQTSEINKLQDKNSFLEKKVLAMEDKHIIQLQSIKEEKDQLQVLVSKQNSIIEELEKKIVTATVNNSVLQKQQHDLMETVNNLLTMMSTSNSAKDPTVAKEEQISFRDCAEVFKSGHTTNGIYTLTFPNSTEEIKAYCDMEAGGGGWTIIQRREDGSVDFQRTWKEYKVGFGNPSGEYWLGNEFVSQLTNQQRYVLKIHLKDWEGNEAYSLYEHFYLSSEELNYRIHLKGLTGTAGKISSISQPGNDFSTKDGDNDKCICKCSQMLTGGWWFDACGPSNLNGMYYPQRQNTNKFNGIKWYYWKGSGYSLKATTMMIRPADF
The test can be described thus: SPR, BIAcore T100; hAng-2 C-His captured on anti-His chip, antibody flowed. The protocol:
To more exactly measure the binding affinity of the anti-Ang2 antibodies to antigen Ang2, the binding affinity of the above antibodies to the antigen was measured by an surface plasmon resonance (SPR) method using BIAcore T100 (GE Healthcare). The SPR method uses refractive index change of light which passes a sensor chip according to the state of materials coated onto the sensor chip, and if an antigen or an antibody is flowed onto a chip coated with the antigen or antibody, it causes changes in refractive index due to their binding and Kd values are thus calculated from the measured values.
First, anti-His antibody was immobilized on a CM5 sensor chip (GE healthcare) up to 8,000 RU levels using a pH 5.0 acetate solution and an amine coupling kit (GE Healthcare). 6 μg/ml of a recombinant hAng-2 (C-His, R&D Systems) protein was flowed onto the chip to be captured at 100 to 200 RU levels.
Background: SPR reads the build-up and loss of mass on a sensor chip optically.

For another test, the target named is T2, hAng1 (human, UniProt Q15389 20-498, limits assumed).
T2 construct: Tested by the same SPR set-up as hAng2; the construct is not described; also called human Ang1
T2 sequence (looked up): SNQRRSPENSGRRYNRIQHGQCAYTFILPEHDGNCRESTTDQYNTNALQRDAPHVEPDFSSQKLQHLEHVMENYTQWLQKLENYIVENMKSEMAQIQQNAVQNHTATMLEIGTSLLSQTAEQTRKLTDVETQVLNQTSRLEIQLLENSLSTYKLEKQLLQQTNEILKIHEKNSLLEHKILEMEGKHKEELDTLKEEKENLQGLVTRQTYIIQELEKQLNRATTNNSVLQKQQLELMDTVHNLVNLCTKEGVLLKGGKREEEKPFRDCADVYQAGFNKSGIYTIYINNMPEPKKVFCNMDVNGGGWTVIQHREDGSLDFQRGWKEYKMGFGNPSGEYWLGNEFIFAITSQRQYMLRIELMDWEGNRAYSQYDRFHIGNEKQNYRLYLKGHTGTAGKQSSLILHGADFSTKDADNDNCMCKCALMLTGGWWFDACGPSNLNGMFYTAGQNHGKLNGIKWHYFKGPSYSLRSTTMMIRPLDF
Nature of the test: SPR, BIAcore T100.

The target of the next test is T3, FLAG-tagged hAng-2 (human, UniProt O15123 19-496).
T3 sequence: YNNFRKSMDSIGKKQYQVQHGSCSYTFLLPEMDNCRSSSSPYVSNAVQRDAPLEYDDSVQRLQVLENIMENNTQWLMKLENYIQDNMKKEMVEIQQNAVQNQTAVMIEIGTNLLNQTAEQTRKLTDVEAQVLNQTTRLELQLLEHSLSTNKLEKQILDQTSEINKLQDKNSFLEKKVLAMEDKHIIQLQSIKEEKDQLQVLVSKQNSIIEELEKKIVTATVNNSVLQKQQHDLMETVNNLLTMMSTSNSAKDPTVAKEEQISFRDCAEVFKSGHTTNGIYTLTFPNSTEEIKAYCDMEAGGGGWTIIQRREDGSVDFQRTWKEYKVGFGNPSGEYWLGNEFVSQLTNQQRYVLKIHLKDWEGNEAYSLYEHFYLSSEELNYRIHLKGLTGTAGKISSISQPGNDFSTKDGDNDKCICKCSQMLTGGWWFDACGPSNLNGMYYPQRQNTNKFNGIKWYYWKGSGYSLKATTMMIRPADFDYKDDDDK
Nature of the test: Ang2:Tie2 competition ELISA; hTie2-Fc coated, 400 ng/ml FLAG-tagged hAng-2, anti-FLAG-HRP detection. The protocol:
More specifically, MaxiSorp™ flat-bottom plate (Nunc) of 96-well was coated with hTie2-Fc (R&D Systems) which is a protein bound with 4 μg/ml of Fc of human IgG1. After coating, the plate was washed five times with 0.05% (v/v) Tween-20-containing PBS (phosphate buffer saline) and then blocked with 1% (v/v) BSA (bovine serum albumin; Sigma)-containing PBS at a room temperature for 2 hour.
For Ang2:Tie2 competition ELISA, each anti-Ang2 antibody obtained in Example 2 was placed at various concentrations of 400 nM-0.001 nM into each well coated with the hTie-2/Fc fusion protein along with 1% (v/v) BSA and 400 ng/ml of a FLAG-tagged hAng-2 and then, the plate was allowed to react at a room temperature for 2 hours and washed five times with PBST. After that, a HRP-conjugated anti-FLAG antibody (Sigma) diluted in 1% (v/v) BSA-containing PBS at a ratio of 1:5,000 (v/v) was added in an amount of […] to each well to react at a room temperature for 1 hour and then, the plate was washed five times with PBST. Lastly, 100 μl of TMB substrate (Cell Signaling) was added to each well of the plate to induce color development for 3 min. and then, the reaction was ceased by the addition of 100 μl of Stop solution (Cell Signaling) and OD450 values were measured on a plate reader (Molecular Devices).
In general terms: In an ELISA, binding on a coated surface is turned into a signal by an enzyme label.

Test [2] has as its target T4, human Ang2 protein (R&D systems) (human, UniProt O15123 19-496).
T4 sequence: T1 sequence
The test can be described thus: cell-based or functional assay.

B1: SAIT-ANG2-AB-m8D3 (antibody, V domains shown)
VH: EVQLQQSGPELVKPGDSVKMSCKASGYTFTDYYMKWVRQSHGKSLQWVGEINPKNGDTFYNQIFKGKATLTVDKSSSTAYMQLTSLTSEDSAVYYCTRENDYDVGFFDYWGQGTSVTVSS
VL: TIVMTQTPKFLLVSAGDRITITCKASQSVSNDVAWYQQKPGQSPKLLIYYASNRYPGVPDRFTGSGYGTDFTFTISTVQAEDLAVYFCQQDYTSPWTFGGGTELEIK
notes: also called hybridoma KCLRF-BP-00308
Take B1: the dissociation constant (Kd) (in general, the free concentration of one partner at which half of the binding sites on the other are occupied at equilibrium, for simple one-to-one binding) in test [1] was 4 nM. In addition, the binding result with hAng1 was “no binding (tested: 100 nM (highest antibody concentration))”. For the same molecule, the IC50 – broadly, the concentration that gives 50% inhibition – with FLAG-tagged hAng-2 turned out to be 0.99 nM. The “Tie2 phosphorylation inhibition (%), antibody at 50 nM, Tie2-overexpressing CHO cells with 20 nM human Ang2” value (from here on “Tie2 phosphorylation inhibition (%)”) in test [2] came to 76.7%.

B2: SAIT-ANG2-AB-m3E2 (antibody, V domains shown)
VH: EVQLQQSGAELVKPGASVKLSCTASGFNIKDPYIHWVKQRPEQGLEWIGRIDPANGNTKYDPKFQGKATITADTSSNTAYLQLSSLTSEDTAVYYCVRRWDGGGFDYWGQGTSVTVSS
VL: DIQMTQTTSSLSASLGDRVTISCRASQDISNYLNWYQQKPDGTVKLLIYYTSRLHSGVPSRFSGSGSGTDYSLTITNLEQEDIATYFCQQGNTLPWTFGGGTKLEIK
notes: also called hybridoma KCLRF-BP-00305
Regarding B2, in test [1], the Kd is 1.3 nM. Moreover, the binding result with hAng1 is “no binding (tested: 100 nM (highest antibody concentration))”. This molecule also displayed an IC50 with FLAG-tagged hAng-2 of 0.55 nM. In addition, the “Tie2 phosphorylation inhibition (%)” value in test [2] is 76.9%.

B3: SAIT-ANG2-AB-m1A10 (antibody, V domains shown)
VH: QVQLQQSGAELMKPGASVKISCKATDYTFSSYWLEWLIQRPGHGLEWIGEILPGSGSTNYNEKFRGKATFTEDTSSNTAYMQLSSLTSEDSAVYYCARGNHNSYYYAMDYWGQGTSVTVSS
VL: DIVLTQSPASLAVSLGQRATISCRASESVDSYGNSFMHWYQQKPGQPPKLLIYRASNLDSGIPARFSGSGSRTDFTLTINPVEADDVATYYCQQSNEDPLTFGAGTKLELK
notes: also called hybridoma KCLRF-BP-00306
With B3, in test [1], the Kd turned out to be 4.2 nM. The binding result in the test with hAng1 is on record as “no binding (tested: 100 nM (highest antibody concentration))”. In the test with FLAG-tagged hAng-2, the IC50 was determined as 1.34 nM. For the same molecule, the “Tie2 phosphorylation inhibition (%)” value in test [2] was found to be 82%.
